Results as given in patent publication US7396905B1, “Calcipressins: endogenous inhibitors of calcineurin, uses and reagents related thereto” (priority 1999, dated 2008).

Assays:
[1] = test system: calcineurin-dependent nuclear import of NF-AT4; assay: Calcineurin-dependent NF-AT4 nuclear import assay in BHK cells; type: cell-based, baby hamster; details: co-expressed with GFP-NF-AT4 in BHK cells; calcium ionophore
Procedure: This assay monitors the subcellular location of GFP-tagged NF-AT4, a transcription factor that resides in the cytoplasm of unstimulated BHK cells. Following stimulation of BHK cells with ionomycin, a calcium ionophore, GFP-NF-AT4 translocates to the nucleus with a t1/2 of five minutes. This translocation event is accompanied by a dephosphorylation of NF-AT4 in a process dependent on calcineurin.
Baby hamster kidney cells were grown on sterile glass coverslips in DMEM media with 10% fetal calf serum and transfected using calcium phosphate methods (Heald et al., 1993). […] NF-AT4 expression was based on the vector pcDNA3-GFP-NF-AT4 (Shibasaki et al., 1996). Transfected cells were grown for 18 hours prior to drug treatments. Cells were fixed 30 minutes after ionomycin (0.5 uM) treatment or washout using 3% formaldehyde in PBS for 10 minutes at room temperature.

[2] = test system: calcineurin A and B subunits produced by in vitro translation; assay: In vitro binding of GST fusion proteins to 35S-labelled calcineurin subunits; details: GST fusion proteins purified from E. coli
Procedure: 5A. […] Associated calcineurin subunits were detected and quantified by SDS-polyacrylamide gel electrophoresis and autoradiography. The same deletion mutants were co-expressed with GFP-NF-AT4 in BHK cells and assayed for their ability to block calcium ionophore-stimulated NF-AT4 nuclear import.
Purified GsT-Csp1 and -Csp2 fusion proteins were mixed with calcineurin in vitro translation lysates in buffer A (50 mM Tris-HCl, pH7.5, 140 mM NaCl, 1 mM CaCl2, and 0.4% Triton X-100), incubated for 60 minutes at 4 degrees, and absorbed with glutathione-agarose beads. The agarose beads were washed three times with buffer A, resuspended in 2×SDS sample buffer, and fractionated on SDS-polyacrylamide gels. Dried gels were analyzed by the phosphoImager to detect and quantify GsT-Csp1 or -Csp2-associated calcineurin subunits.

B1: Csp1 1-100: Csp1 lacking the C-terminal half (protein)
chain: MEEVDLQDLPSATIACHLDPRVFVDGLCRAKFESLFRTYDKDTTFQYFKSFKRVRINFSNPLSAADARLRLHKTEFLGKEMKLYFAQTLHIGSSHLAPPN
modifications: left off: a dimerising Fc or GST
notes: Csp1 lacking the C-terminal half
[1]
  inhibition of NF-AT4 nuclear import stimulated by calcium ionophore: fails to block calcium-activation NF-AT4 nuclear import
[2]
  interaction with calcineurin in vitro: no obvious interaction with calcineurin in vitro
